Consider 2 sequences from paper PMC7237784.

This series deals with T1, AcFur (Acidithiobacillus caldus MTH-04) (UniProt A0A060A2G1).
T1 sequence: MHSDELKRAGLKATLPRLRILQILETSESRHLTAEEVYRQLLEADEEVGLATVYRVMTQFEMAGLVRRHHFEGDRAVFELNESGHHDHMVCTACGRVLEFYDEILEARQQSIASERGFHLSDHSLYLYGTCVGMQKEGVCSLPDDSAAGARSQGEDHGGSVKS
Kind of series: EMSA. As to conditions: EMSA: 0.4 nM DNA, 0/2/4/8 nM protein, 10 mM Tris-HCl pH 8.0, 100 mM NaCl, 1 mM MnCl2, room temperature, 30 min; 5% native PAGE in 0.5x TBE, EB stain.

As for “GCGTAGGACGTCCTTGATAACTGCAACTAAGTTGCATATATTCCGCACGACCACTCCGCGCGTCCCTGGGGAGCTTGACCGGTAAGTCTATTTATTGAATGATAATGATTAGCATTTATATTATTTGGAGAGATTGTCCATGCGTCGTATACCCCTCTGTGCGCTGCTGAGCACCATGCTTGCTTCCAGC (double strand) [feoP promoter]”, the binding result is “binds”.
On to “TTCCACCTGCTCACCTGCGCGGGCCGAGCTCAGGCGGTGGGGGGAAAGGACTTGGGTCATGACGCTCACACTCCCAACGAGTTCGTGGGGACACTATATCATAATGGTAATCATTTGCAATATCAGCCCAAGGGAGGGCCGTCCCGGCGGACGCAGCCGCCGACGCTCAGTCCAGGTCGCCGTGCCTGGGTGTAAAACGC (double strand) [feoABC operator (feoA promoter)]”, for which the binding entry is given as “binds”.
